Laboratory results: patent publication US20240034757A1 (OXFORD UNIVERSITY INNOVATION, published 2024)

B2: P1172_IXORI (other)
chain: LHEDEIFTVDYCGTNCTKQSNGSWTTCPGNCSCYHEDGKTDGFCLSTEYTDFTQFPNLTSEEMDAATPRPE

Key:
[1] = target: T1, P1142_AMBCA (Amblyomma cajennense, UniProt A0A023FBW4 26-97); experiment: BLI [Cont.]
T1 sequence: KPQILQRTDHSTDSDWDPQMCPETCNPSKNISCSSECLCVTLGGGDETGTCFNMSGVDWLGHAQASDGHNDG

[2] = target: T2, P1128_IXORI (Ixodes ricinus, UniProt A0A0K8R6B3 19-90); experiment: BLI [Cont.]
T2 sequence: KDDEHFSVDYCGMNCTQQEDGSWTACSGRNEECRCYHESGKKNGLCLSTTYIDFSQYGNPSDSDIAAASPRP

[3] = target: T3, P1127_IXORI (Ixodes ricinus, UniProt A0A0K8RJ67 29-108); experiment: BLI [Cont.]
T3 sequence: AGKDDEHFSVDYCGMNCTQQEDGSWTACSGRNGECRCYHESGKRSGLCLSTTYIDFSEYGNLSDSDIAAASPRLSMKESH

[4] = target: T4, P1229_IXORI (Ixodes ricinus, UniProt A0A0K8R4R9 32-108); experiment: BLI [Cont.]
T4 sequence: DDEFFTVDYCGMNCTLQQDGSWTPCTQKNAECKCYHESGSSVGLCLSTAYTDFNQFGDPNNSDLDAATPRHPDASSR

[5] = target: T5, P1162_IXORI (Ixodes ricinus, UniProt A0A0K8RDJ1 29-99); experiment: BLI [Cont.]
T5 sequence: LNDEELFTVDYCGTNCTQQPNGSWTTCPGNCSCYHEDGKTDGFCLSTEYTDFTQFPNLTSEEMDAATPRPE

[6] = target: T6, P1132_IXORI (Ixodes ricinus, UniProt V5GZ08 29-106); experiment: BLI [Cont.]
T6 sequence: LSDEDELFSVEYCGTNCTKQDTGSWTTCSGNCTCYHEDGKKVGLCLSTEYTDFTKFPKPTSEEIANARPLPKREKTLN

[7] = target: T7, P1170_IXORI (Ixodes ricinus, UniProt A0A0K8RD51 29-102); experiment: BLI [Cont.]
T7 sequence: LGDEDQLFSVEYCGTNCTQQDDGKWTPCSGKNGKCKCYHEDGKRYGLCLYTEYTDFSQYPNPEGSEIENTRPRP

[8] = target: T8, P1166_IXORI (Ixodes ricinus, UniProt A0A0K8RE99 25-110); experiment: BLI [Cont.]
T8 sequence: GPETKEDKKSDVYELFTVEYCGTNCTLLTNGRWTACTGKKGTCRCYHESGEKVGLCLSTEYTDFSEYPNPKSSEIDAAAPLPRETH

[9] = target: T9, P1168_IXORI (Ixodes ricinus, UniProt A0A0K8RCU3 25-106); experiment: BLI [Cont.]
T9 sequence: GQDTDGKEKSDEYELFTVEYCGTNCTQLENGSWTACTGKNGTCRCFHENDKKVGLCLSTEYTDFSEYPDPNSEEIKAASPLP

[10] = target: T10, P1134_IXORI (Ixodes ricinus, UniProt A0A0K8RAI0 32-135); experiment: BLI [Cont.]
T10 sequence: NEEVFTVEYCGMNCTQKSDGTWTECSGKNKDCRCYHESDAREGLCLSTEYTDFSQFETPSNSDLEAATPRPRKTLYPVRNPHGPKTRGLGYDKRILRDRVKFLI

[11] = target: T11, P1096_IXORI (Ixodes ricinus, UniProt A0A0K8RKE4 24-114); experiment: BLI [Cont.]
T11 sequence: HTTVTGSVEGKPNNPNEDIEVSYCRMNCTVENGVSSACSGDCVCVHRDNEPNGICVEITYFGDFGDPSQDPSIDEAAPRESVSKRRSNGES

[12] = target: T12, P1174_IXORI (Ixodes ricinus, UniProt V5I3C5 28-104); experiment: BLI [Cont.]
T12 sequence: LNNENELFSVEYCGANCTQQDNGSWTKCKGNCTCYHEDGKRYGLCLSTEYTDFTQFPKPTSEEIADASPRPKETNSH

[13] = target: B2; experiment: BLI [Cont.]
[14] = target: P1080_IXORI (Ixodes ricinus, UniProt A0A090XBL6 20-118); experiment: BLI [Cont.]
[15] = target: T13, P1095_IXORI (Ixodes ricinus, UniProt A0A0K8RCE3 24-112); experiment: BLI [Cont.]
T13 sequence: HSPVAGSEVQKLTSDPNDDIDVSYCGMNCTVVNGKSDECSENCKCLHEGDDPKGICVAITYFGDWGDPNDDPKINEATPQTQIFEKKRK

[16] = target: T14, P1156_IXORI (Ixodes ricinus, UniProt V5HBW0 29-108); experiment: BLI [Cont.) C]
T14 sequence: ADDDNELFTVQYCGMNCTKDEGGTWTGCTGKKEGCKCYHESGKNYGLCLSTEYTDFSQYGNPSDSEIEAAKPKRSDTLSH

[17] = target: T15, CXCL3_HUMAN (human, UniProt P19876 35-107); experiment: BLI [Cont.]
T15 sequence: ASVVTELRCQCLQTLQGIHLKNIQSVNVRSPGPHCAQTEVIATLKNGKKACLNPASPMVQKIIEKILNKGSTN

[18] = target: T16, CXCL6_HUMAN (human, UniProt P80162 38-114); experiment: BLI [Cont.]
T16 sequence: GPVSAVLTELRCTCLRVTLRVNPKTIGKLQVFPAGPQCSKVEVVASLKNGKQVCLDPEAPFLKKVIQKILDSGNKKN

[19] = target: T17, CXCL2_HUMAN (human, UniProt P19875 35-107); experiment: BLI [Cont.]
T17 sequence: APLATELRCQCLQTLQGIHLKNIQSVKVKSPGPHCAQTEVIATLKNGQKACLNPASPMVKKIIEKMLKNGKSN

[20] = target: T18, CXCL1_HUMAN (human, UniProt P09341 35-107); experiment: yeast surface display FACS re-test; note: test concentration or dose not given here
T18 sequence: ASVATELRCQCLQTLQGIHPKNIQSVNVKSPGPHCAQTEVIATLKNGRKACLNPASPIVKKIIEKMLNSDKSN

[21] = target: T19, CXCL8_HUMAN (human, UniProt P10145 28-99); experiment: yeast surface display FACS re-test; note: test concentration or dose not given here
T19 sequence: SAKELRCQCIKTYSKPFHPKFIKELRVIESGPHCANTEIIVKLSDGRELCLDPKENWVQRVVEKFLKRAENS

[22] = target: T20, CXCL11_HUMAN (human, UniProt O14625 22-94); experiment: BLI
T20 sequence: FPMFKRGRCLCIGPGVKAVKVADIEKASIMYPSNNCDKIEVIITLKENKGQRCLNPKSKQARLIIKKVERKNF

[23] = target: T21, CXCL10_HUMAN (human, UniProt P02778 22-98); experiment: BLI
T21 sequence: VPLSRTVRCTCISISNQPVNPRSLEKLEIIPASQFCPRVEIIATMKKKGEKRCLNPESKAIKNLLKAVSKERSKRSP

[24] = target: T22, CXCL9_HUMAN (human, UniProt Q07325 23-125); experiment: BLI
T22 sequence: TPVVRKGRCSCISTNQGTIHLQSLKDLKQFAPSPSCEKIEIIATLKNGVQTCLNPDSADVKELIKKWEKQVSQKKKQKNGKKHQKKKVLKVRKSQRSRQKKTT

[25] = target: T23, CXCL14_HUMAN (human, UniProt O95715 35-111); experiment: BLI
T23 sequence: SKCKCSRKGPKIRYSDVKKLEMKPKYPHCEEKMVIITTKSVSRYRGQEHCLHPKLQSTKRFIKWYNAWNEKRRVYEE

[26] = target: CXCL12_HUMAN (human, UniProt P48061 22-89); experiment: BLI
[27] = target: T24, CXCL13_HUMAN (human, UniProt O43927 23-109); experiment: BLI
T24 sequence: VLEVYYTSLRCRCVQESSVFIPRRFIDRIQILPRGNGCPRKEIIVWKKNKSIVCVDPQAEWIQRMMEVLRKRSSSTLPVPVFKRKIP

Sequence of P1080_IXORI (A0A090XBL6 20-118): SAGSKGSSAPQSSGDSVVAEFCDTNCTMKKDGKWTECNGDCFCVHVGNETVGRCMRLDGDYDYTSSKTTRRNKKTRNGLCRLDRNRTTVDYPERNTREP
Sequence of CXCL12_HUMAN (P48061 22-89 limits assumed): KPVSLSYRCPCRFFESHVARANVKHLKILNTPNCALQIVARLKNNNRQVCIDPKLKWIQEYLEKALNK

B1: CXCL4_HUMAN (ligand)
chain: EAEEDGDLQCLCVKTTSQVRPRHITSLEVIKAGPHCPTAQLIATLKNGRKICLDLQAPLYKKIIKKLLES
With B1 the Kd [1] was 381 nM, the binding result [2] was “no binding (tested: 300 nM)” and the binding result [3] was “no binding (tested: 300 nM)”. B1: no binding (tested: 300 nM) [4]; no binding (tested: 300 nM) [5]; no binding (tested: 300 nM) [6]. B1: no binding (tested: 300 nM) [7]; no binding (tested: 300 nM) [8]; no binding (tested: 300 nM) [9]. B1: no binding (tested: 300 nM) [10]; no binding (tested: 300 nM) [11]; no binding (tested: 300 nM) [12]. The binding result [13] was “no binding (tested: 300 nM)”, the Kd [14] was 2310 nM and the binding result [15] was “no binding (tested: 300 nM)”. B1: no binding (tested: 300 nM) [16].

For B2, the binding result [17] was “no binding (tested: 300 nM)”, the binding result [18] was “no binding (tested: 300 nM)” and the Kd [19] was 26 nM. The “% cells over threshold fluorescence” value [20] was 65%, the “% cells over threshold fluorescence” value [21] was 41% and the binding result [22] was “no binding (tested: 300 nM)”. B2: no binding (tested: 300 nM) [23]; no binding (tested: 300 nM) [24]; no binding (tested: 300 nM) [25]. B2: no binding (tested: 300 nM) [26]; no binding (tested: 300 nM) [27].
